Experimental data: PMC6210743, “Starch Synthesis in Ostreococcus tauri: The Starch-Binding Domains of Starch Synthase III-B Are Essential for Catalytic Activity” (Frontiers in Plant Science, 2018)
Numbering of substitutions follows the chain as printed. Names may count otherwise.

How the values were obtained:
[1] = substrate: Nc1ncnc2c1ncn2[C@@H]1O[C@H](COP(=O)(O)OP(=O)(O)O[C@H]2O[C@H](CO)[C@@H](O)[C@H](O)[C@H]2O)[C@@H](O)[C@H]1O; test: Pi release by alkaline phosphatase from ADP, Malachite Green assay; type: biochemical, Ostreococcus tauri; conditions: 2 mg/ml glycogen as acceptor, 50 mM BICINE pH 8.0, 30°C
From the text: Pi release by alkaline phosphatase from ADP, Malachite Green assay on OsttaSSIII-B

[2] = substrate: Nc1ncnc2c1ncn2[C@@H]1O[C@H](COP(=O)(O)OP(=O)(O)O[C@H]2O[C@H](CO)[C@@H](O)[C@H](O)[C@H]2O)[C@@H](O)[C@H]1O; test: as above; type: biochemical, Ostreococcus tauri; conditions: 2 mg/ml glycogen as acceptor, 50 mM BICINE pH 8.0, 30°C, nH 0.57
From the text: Pi release by alkaline phosphatase from ADP, Malachite Green assay on OsttaSSIII-B CD

B1: OsttaSSIII-B (Ostreococcus tauri) (protein)
chain: ASVETQLDGTDHPRVFTVPATPVAGGALRVFADVERADALRSASGWKLIGGYNAWRVGEFTKDMIKVKGTSWVYADVNVDERAFSMDFVFKGDGEAYEKDEGQDFSLTVDFGPTPEEFEEMLKVIEMENKARDEANAFIDGQMARARESGAGASIEKYGRVICKTASGKPGVAGSTERVMWNKAYNPIGGDTDKLVLHVGFNGWCAGVEAKFDLVRATGEIKDENNDWWVADVPLRADAYLLDFVVSDVEESAWDNNEQANFTLAVETSDEEWAVLRELKFEEIRAMAFKKELAEKERKERRAKADAEAKAKAIEVGLKQQSYIIHTEPKVPQVGKPLKVFYNKNNTNLSWSDEIYMTGGFNRWSHEAAIEPVKMTPPGAGEEFFTVTVPRVPTDAWMVDFVFSSGVGEGAQYDNKSGRDYHLPTRGSTASKPPLHVCHIAVEMAPIAKVGGLADVVTAIGRAIQDNGHLVEIILPKYQFFNNSVLLGGKEYETHFDWAGTTIRVEKCKVEGLQCFFIEPQNNMFQTDSVYGRNDDAHRFNFFCNAALEFLVRTARQPDILHCHDWSSAEVARAYWEHYHHNGLTKPKVAFTIHNMNYGQAKLGEAVHHSQVATTVSPSYAGEVRGSPVIGNNGHKFTGVRNGIDPEIWDPETDIFVPVKYNADNQEEGKAAARAELRQRAGMTGWDDKPIVGVVSRLTAQKGVHLIKHAAHHTLSRGGQFVLLGSAPDPKIQGEFNGLANQLGGEDTGFFFAFDEPLSHLMYAGCDVILVPSMFEPCGLTQMISMRYGAVPVVRATGGLRDTVFDVDNEKERAAWEVGGSTDWKTDGDMTNGFSFEGTDEGSLNYALDRCLDAFYNDREWFRSLQKRVMLQDWSWNRPANDYEELYYKMIGR
- K0.5 ([1]; nH 1.16): 0.09 ± 0.02 mM
- Vmax ([1]; nH 1.16): 1.65 µmol/min/mg

B2: OsttaSSIII-B (Ostreococcus tauri; W279A) (protein)
chain: B1 chain with W229A
- K0.5 ([1]; nH 0.88): 0.38 ± 0.11 mM
- Vmax ([1]; nH 0.88): 0.42 µmol/min/mg

B3: OsttaSSIII-B (Ostreococcus tauri; F138A) (protein)
chain: B1 chain with F88A
- K0.5 ([1]; nH 1.06): 0.07 ± 0.02 mM
- Vmax ([1]; nH 1.06): 0.23 µmol/min/mg

B4: OsttaSSIII-B (Ostreococcus tauri; W304A) (protein)
chain: B1 chain with W254A
- K0.5 ([1]; nH 0.80): 0.15 ± 0.03 mM
- Vmax ([1]; nH 0.80): 0.31 µmol/min/mg

B5: OsttaSSIII-B (Ostreococcus tauri; W122A/Y124A) (protein)
chain: B1 chain with W72A, Y74A
- K0.5 ([1]; nH 0.94): 0.11 ± 0.01 mM
- Vmax ([1]; nH 0.94): 0.57 µmol/min/mg

B6: OsttaSSIII-B (Ostreococcus tauri; Y147A) (protein)
chain: B1 chain with Y97A
- K0.5 ([1]; nH 0.78): 0.07 ± 0.01 mM
- Vmax ([1]; nH 0.78): 1.1 µmol/min/mg

B7: OsttaSSIII-B CD (Ostreococcus tauri) (protein)
chain: LHVCHIAVEMAPIAKVGGLADVVTAIGRAIQDNGHLVEIILPKYQFFNNSVLLGGKEYETHFDWAGTTIRVEKCKVEGLQCFFIEPQNNMFQTDSVYGRNDDAHRFNFFCNAALEFLVRTARQPDILHCHDWSSAEVARAYWEHYHHNGLTKPKVAFTIHNMNYGQAKLGEAVHHSQVATTVSPSYAGEVRGSPVIGNNGHKFTGVRNGIDPEIWDPETDIFVPVKYNADNQEEGKAAARAELRQRAGMTGWDDKPIVGVVSRLTAQKGVHLIKHAAHHTLSRGGQFVLLGSAPDPKIQGEFNGLANQLGGEDTGFFFAFDEPLSHLMYAGCDVILVPSMFEPCGLTQMISMRYGAVPVVRATGGLRDTVFDVDNEKERAAWEVGGSTDWKTDGDMTNGFSFEGTDEGSLNYALDRCLDAFYNDREWFRSLQKRVMLQDWSWNRPANDYEELYYKMIGR
- K0.5 [2]: 0.12 ± 0.04 mM
- Vmax [2]: 0.76 µmol/min/mg
